Measured values published in patent publication US20040250304A1 (EISAI R AND D MANAGEMENT, published 2004).

How the values were obtained:
[1] = target: T1, synthetic Aβ (1-42) peptide (UniProt P05067 672-713); assay: Aβ (1-42) binding to HEK293 cells expressing human CLAC-P; Western blotting
T1 construct: domain: Aβ (1-42); also called beta-amyloid; amyloid-beta peptide

[2] = target: T1, synthetic Aβ (1-42) peptide; assay: solid phase binding: Aβ (1-42) immobilized on 96-well plates, culture supernatant applied, detection with anti-CLAC antibody and peroxidase secondary antibody, TMB; ten trials
Method: In vitro binding of CLAC to Aβ was performed according to a method of Webster et al. (Am. J. Pathol., 150, 1531 (1997)).
The transformant (strain 9D2-1) permanently expressing human CLAC-P obtained in Example 3 was selection-cultured in DMEM medium containing 10% FBS and hygromycin for 4 days, and the culture supernatant was collected. Fifty μl (0.1 mg/ml) of synthetic Aβ (1-42) (Bachem) was immobilized to each well of 96-well micro-well plates (Greiner), and dried in a desiccator. Thereafter, blocking was performed with PBS-T containing 1% gelatin (Wako Junyaku) for 1 hour, and washed with PBS-T for 10 min (3×), and the culture supernatant obtained was applied. Similarly, culture supernatant of control HEK293 cells used in Example 3 was applied. After reaction at room temperature for 1 hour, washed with PBS-T for 10 min (5×), and then reacted with anti-CLAC antibody diluted with similar blocking solution (1/5000) at room temperature for 1 hour. After washing with PBS-T for 10 min (5×), reacted with a secondary antibody (anti-rabbit Ig, horseradish peroxidase bound whole antibody (Amersham)) diluted with similar blocking solution (1/5000) at room temperature for 1 hour. After washing with PBS-T for 10 min (5×), colour was developed with TMB reagent (Kirkegard & Perry Laboratories).

T1 sequence (P05067 672-713 limits assumed): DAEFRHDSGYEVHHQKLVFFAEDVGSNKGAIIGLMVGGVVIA

| binding result [1] | fold colour development against control HEK293 supernatant [2] [times] | Binder |
| --- | --- | --- |
| binds |  | human CLAC-P (precursor of CLAC), full length (receptor, Type II single pass transmembrane protein of 654 amino acids, expressed permanently in HEK293 cells (strains 9D2-1, 9D2-2, 9D2-11); also called full length recombinant CLAC-P protein; 9D2 antigen precursor) MLLKKHAGKGGGREPRSEDPTPAEQHCSRTMPPCAVLAALLSVVAVVSCLYLGVKTNDLQARIAALESAKGAPSIHLLPDTLDHLKTMVQEKVERLLAQKSYEHMAKIRIAREAPSECNCPAGPPGKRGKRGRRGESGPPGQPGPQGPPGPKGDKGEQGDQGPRMVFPKINHGFLSADQQLIKRRLIKGDQGQAGPPGPPGPPGPRGPPGDTGKDGPRGMPGVPGEPGKPGEQGLMGPLGPPGQKGSIGAPGIPGMNGQKGEPGLPGAVGQNGIPGPKGEPGEQGEKGDAGENGPKGDTGEKGDPGSSAAGIKGEPGESGRPGQKGEPGLPGLPGLPGIKGEPGFIGPQGEPGLPGLPGTKGERGEAGPPGRGERGEPGAPGPKGKQGESGTRGPKGSKGDRGEKGDSGAQGPRGPPGQKGDQGATKIIDYNGNLHEALQRITTLTVTGPPGPPGPQGLQGPKGEQGSPGIPGMDGEQGLKGSKGDMGDPGMTGEKGGIGLPGLPGANGMKGEKGDSGMPGPQGPSIIGPPGPPGPHGPPGPMGPHGLPGPKGTDGPMGPHGPAGPKGERGEKGAMGEPGPRGPYGLPGKDGEPGLDGFPGPRGEKGDLGEKGEKGFRGVKGEKGEPGQPGLDGLDAPCQLGPDGLPMPGCWQK |
|  | ~50 | CLAC secreted by HEK293 transformant strain 9D2-1 permanently expressing human CLAC-P (other, Usually, the first amino acid Glu of CLAC is cyclized to be pyroglutamic acid residue, also called crude purified CLAC; culture supernatant of transformant permanently expressing CLAC-P) EAPSECNCPAGPPGKRGKRGRRGESGPPGQPGPQGPPGPKGDKGEQGDQGPRMVFPKINHGFLSADQQLIKRRLIKGDQGQAGPPGPPGPPGPRGPPGDTGKDGPRGMPGVPGEPGKPGEQGLMGPLGPPGQKGSIGAPGIPGMNGQKGEPGLPGAVGQNGIPGPKGEPGEQGEKGDAGENGPKGDTGEKGDPGSSAAGIKGEPGESGRPGQKGEPGLPGLPGLPGIKGEPGFIGPQGEPGLPGLPGTKGERGEAGPPGRGERGEPGAPGPKGKQGESGTRGPKGSKGDRGEKGDSGAQGPRGPPGQKGDQGATKIIDYNGNLHEALQRITTLTVTGPPGPPGPQGLQGPKGEQGSPGIPGMDGEQGLKGSKGDMGDPGMTGEKGGIGLPGLPGANGMKGEKGDSGMPGPQGPSIIGPPGPPGPHGPPGPMGPHGLPGPKGTDGPMGPHGPAGPKGERGEKGAMGEPGPRGPYGLPGKDGEPGLDGFPGPRGEKGDLGEKGEKGFRGVKGEKGEPGQPGLDGLDAPCQLGPDGLPMPGCWQK |
